Literature values in patent publication US20240156960A1 (priority 2020, published 2024).

What was measured:
SARS-CoV2 S; RBD = SARS-CoV2 S; RBD (Severe acute respiratory syndrome coronavirus 2, UniProt P0DTC2); details: epitope S
SARS-CoV2 S = SARS-CoV2 S (Severe acute respiratory syndrome coronavirus 2, UniProt P0DTC2); details: Protein + Epitope S, Unk
NL63 S = NL63 S (Human coronavirus NL63, UniProt Q6Q1S2); details: Protein + Epitope S, Unk
SARS-CoV1 S = SARS-CoV1 S (Severe acute respiratory syndrome coronavirus, UniProt P59594)
OC43 S = OC43 S (Human coronavirus OC43, UniProt P36334); details: Protein + Epitope S, Unk
Chain of OC43 S (P36334 14-1353): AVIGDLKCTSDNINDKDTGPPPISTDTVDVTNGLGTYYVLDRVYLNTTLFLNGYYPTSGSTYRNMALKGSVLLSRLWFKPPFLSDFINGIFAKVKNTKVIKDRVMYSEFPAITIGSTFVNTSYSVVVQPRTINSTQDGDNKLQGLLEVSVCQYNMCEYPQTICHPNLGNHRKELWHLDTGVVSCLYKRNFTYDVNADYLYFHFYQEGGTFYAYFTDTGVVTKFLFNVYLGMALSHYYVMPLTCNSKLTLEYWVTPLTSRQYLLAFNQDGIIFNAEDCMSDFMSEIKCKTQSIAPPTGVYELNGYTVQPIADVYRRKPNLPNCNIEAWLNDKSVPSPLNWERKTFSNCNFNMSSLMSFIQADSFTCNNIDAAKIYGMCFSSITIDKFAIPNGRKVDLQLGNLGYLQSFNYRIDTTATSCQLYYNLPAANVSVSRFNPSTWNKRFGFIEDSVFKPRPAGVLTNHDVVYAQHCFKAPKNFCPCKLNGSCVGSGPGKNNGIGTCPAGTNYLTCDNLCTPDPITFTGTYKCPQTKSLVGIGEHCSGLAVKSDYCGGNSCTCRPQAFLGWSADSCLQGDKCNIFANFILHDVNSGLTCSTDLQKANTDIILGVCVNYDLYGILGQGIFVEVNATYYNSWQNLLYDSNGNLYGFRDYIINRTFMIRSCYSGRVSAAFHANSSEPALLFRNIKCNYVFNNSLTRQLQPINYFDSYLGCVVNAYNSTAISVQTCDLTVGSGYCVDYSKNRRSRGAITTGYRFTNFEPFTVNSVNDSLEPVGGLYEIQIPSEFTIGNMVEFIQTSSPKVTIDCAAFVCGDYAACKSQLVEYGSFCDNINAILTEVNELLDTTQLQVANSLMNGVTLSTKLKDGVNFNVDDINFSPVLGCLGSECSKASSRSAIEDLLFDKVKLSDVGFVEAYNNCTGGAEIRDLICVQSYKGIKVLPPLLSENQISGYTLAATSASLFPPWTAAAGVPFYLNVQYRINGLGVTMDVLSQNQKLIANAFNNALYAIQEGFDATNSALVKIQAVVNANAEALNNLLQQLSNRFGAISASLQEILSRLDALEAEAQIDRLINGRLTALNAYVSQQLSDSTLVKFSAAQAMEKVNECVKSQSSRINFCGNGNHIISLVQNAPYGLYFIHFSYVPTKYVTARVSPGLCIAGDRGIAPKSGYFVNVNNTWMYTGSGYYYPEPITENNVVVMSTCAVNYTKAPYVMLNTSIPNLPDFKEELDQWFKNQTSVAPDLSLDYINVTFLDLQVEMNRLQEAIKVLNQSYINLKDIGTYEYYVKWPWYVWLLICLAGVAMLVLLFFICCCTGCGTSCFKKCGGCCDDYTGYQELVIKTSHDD

Chain of NL63 S (Q6Q1S2 19-1356): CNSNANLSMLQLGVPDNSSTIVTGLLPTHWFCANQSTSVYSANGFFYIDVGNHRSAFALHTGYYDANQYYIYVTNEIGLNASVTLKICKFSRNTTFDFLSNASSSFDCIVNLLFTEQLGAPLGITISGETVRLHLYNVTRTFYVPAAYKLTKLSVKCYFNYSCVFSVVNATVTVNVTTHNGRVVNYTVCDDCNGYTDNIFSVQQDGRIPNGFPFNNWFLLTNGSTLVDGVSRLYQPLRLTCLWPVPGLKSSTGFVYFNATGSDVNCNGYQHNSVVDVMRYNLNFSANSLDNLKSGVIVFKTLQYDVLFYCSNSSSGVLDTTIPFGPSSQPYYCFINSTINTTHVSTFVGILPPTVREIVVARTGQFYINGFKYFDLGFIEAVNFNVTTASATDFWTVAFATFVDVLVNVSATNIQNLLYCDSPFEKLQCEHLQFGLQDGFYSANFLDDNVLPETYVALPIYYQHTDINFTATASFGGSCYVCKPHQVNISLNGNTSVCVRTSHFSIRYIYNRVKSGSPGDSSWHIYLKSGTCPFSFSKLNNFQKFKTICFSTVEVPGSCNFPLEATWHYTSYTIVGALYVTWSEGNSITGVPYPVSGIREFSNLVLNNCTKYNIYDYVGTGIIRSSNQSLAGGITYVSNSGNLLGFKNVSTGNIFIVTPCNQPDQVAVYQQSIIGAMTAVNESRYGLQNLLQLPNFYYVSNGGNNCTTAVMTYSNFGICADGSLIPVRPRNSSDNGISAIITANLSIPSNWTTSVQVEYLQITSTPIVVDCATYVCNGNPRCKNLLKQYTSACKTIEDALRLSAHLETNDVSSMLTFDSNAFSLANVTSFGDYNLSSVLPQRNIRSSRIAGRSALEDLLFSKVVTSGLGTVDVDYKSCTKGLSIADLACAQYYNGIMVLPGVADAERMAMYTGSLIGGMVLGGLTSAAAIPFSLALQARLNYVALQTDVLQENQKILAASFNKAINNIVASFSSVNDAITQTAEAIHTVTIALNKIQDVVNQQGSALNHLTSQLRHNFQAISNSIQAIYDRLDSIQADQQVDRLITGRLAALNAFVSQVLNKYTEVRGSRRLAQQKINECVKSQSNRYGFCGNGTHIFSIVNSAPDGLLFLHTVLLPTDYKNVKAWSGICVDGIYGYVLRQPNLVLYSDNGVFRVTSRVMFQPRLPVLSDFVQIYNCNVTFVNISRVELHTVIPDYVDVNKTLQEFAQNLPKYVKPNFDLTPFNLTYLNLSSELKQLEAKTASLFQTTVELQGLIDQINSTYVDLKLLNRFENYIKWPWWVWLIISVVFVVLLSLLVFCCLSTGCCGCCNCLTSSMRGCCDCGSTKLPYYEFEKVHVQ

Molecule | Binds to (SARS-CoV2 S; RBD) | Binds to (SARS-CoV2) | also measured
C124 (antibody, listed as Homo sapiens, V domains shown) VH: EVQLVESGGGLVQPGGSLRLSCAASGFTFSGYSMNWVRQAPGKGPEWVSYISRSSSTIYYADSVKGRFTISRDNAKNSLYLQMNSLRDEDTAVYYCAREGARVGATYDTYYFDYWGQGTLVTVSS VL: EIVLTQSPATLSLSPGERATLSCRASQSFSSYLAWYQQKPGQAPRLLIYDASNRATGIPARFSGSGSGTDFTLTISSLEPEDFAVYYCQQRNNWPPEWTFGQGTKVEIK | SARS-CoV2 |  | 
2M-7E9 (antibody, listed as Homo sapiens, V domains shown) VH: EVQLVESGAEVKKPGSSVKVSCKASGGTFSSFAISWVRQAPGQGLEWMGGIIPIFDTTNYAQKFQGRVTITADESTRTAYMELSSLRSEDTAVYYCARIPGWDRGTDRNWNDDWGQGTTVTVSS VL: DIVMTQSPATLSLSPGERATLSCRASQSVSNFLAWYQQKPGQAPRLLIYDASNRATGIPARFSGSGSGTDFTLTISSLEPEDFAVYYCQQRSNWPPAFTFGPGTKVEIK |  | SARS-CoV2 | 
2M-8E7 (antibody, listed as Homo sapiens, V domains shown) VH: EVQLVESGAEVKKPGSSVKVSCKASGGTFSSYAISWVRQAPGQGLEWMGGIIPIFGTANYAQKFQGRVTVTADESTSTAYMELSSLRSEDTAVYYCARTYSFDSSGYYYDYWGQGTMVTVSS VL: EIVLTQSPATLSLSPGERATLSCRASQSVSSYLAWYQQKPGQAPRLLIYDASNRATGIPARFSGSGSGTDFTLTISSLEPEDFAVYYCQQRSNWPPKITFGQGTRLEIK |  | SARS-CoV2 | 
C101 (antibody, listed as Homo sapiens, V domains shown) VH: QVQLVESGGGLIQPGGSLRLSCAASGFIVSSNYMSWVRQAPGKGLEWVSVIYSGGSTFYTDSVKGRFTISRDNSKNTLYLQMNSLRAEDTAVYYCVRDYGDFYFDYWGQGTLVTVSS VL: EIVLTQSPGTLSLSPGERATLSCRASQSVSSSYLAWYQQKPGQAPRLLIYGASSRATGIPDRFSGGGSETDFTLTISRLEPEDCAVYYCQQYGSSPRTFGQGTKVEIK | SARS-CoV2 |  | 
C104 (antibody, listed as Homo sapiens, V domains shown) VH: QVQLQQWGAGLLKPSETLSLSCAVYGGSLSGYYWSWIRQPPGKGLEWIGEINHFGSTGYNPSLKSRVTISVDTSKSQFSVKLSSVTAADTAVYYCARKPLLYSNLSPGAFDIWGQGTMVTVSS VL: EIVLTQSPGTVSLSPGERATLSCWASQSVSASYLAWYQQKPGQAPRLLIYGASSRATGIPDRFSGSGSGTDFTLTISRLEPEDFAVYYCQQYGTTPRTFGGGTKVEIK | SARS-CoV2 |  | 
2M-4G4 (antibody, listed as Homo sapiens, V domains shown) VH: EVQLVESGAEVKKPGASVKVSCKASGYTFTSYYIHWVRQAPGQGLEWMGVINPSGGSTTYAQKFQGRVTVTRDTSTSTVYMELSSLRSEDTAVYYCARERGDSSGYYEIITTANRRFGMDVWGQGTTVTVSS VL: QSVLTQPASVSGSPGQSITISCTGTSSDVGMYNLVSWYQQHPGQAPKLMIYEGSKRPSGVSNRFSGSKSGNTASLTISGLQAEDEAYYYCCSYAVSSTWVFGGGTKLTVL |  | SARS-CoV2 | 
mAb-85 (antibody, listed as Homo sapiens, V domains shown) VH: QVQLQESGPGLVKPSGTLSLTCAVSGGSITSRDWWSWVRQPPGKGLEWIGEVYHSGSTSYNPSLKSRVTISVDKSKNEFSLKLSSVTAADTAVYYCARAGNIVVMPAAQYYFDYWGQGTLVTVSS VL: EIVLTQSPSSLSASVGDRVTITCRASQDISNYLAWYQQKPGKAPKLLIYAASTLQSGVPLRFSGSGSGTDFTLTISSLQPEDFATYYCLQLHNYSSFGGGTKVDIK |  |  | Binds to (SARS-CoV2 S): SARS-CoV2; Doesn't Bind to (NL63 S): NL63,; Doesn't Bind to (SARS-CoV1 S): CoV1; Doesn't Bind to (OC43 S): OC43,
2M-9H1 (antibody, listed as Homo sapiens, V domains shown) VH: EVQLLESGGGVVQPGRSLRLSCVASGFNFNNYGMHWVRQAPGKGLEWLAALSYEGSKEHYADSLKGRFTVSRDYSRATLHLHMNSLEPEDTAVYFCAKSSKIFYLGESREVDYWGRGTLVTVSS VL: DIVMTQSPSSLSAFVGDRVTITCRASRDIGGDLSWFQQKPGKAPERLIYAASSLESGVPSRFSGSGSATEFALTITSLQPEDFATYYCLQHKSYPLTFGGGTKVDIK |  | SARS-CoV2 | 
2M-9F10 (antibody, listed as Homo sapiens, V domains shown) VH: EVQLLQSGGDLIQPGRSLRLSCAASGFSFEDYAMHWVRQAPGQGLEWVSGISYNGGSIDYVDSVKGRFTISRDNAKNALYLEMNSLRPEDTAFYYCAKDSVRREYTHARVPFDNWGLGTLVTVSS VL: AIRMTQSPSSLSASVGDRVTISCRATQNINYFLNWYQQKPGRAPKLLIYAASGLQSGVPSRFSGSGTGRVFTLTINSLQPDDFATYYCQQSFVSPRTFGQGTKVDIK |  | SARS-CoV2 | 
C115 (antibody, listed as Homo sapiens, V domains shown) VH: QVQLVESGGGLIKPGRSLRLSCTASGFTFGDYAMTWFRQAPGKGLEWVGFIRSKAYGGTTGYAASVKYRFTISRDDSKSIAYLQMDSLKTEDTAVYYCTRWDGWSQHDYWGQGTLVTVSS VL: DIVMTQSPLSLSVTPGEPASISCRSSQSLLHSNGNNYFDWYLQKPGQSPQLLIYLGSNRASGVPDRFSGSGSGTDFTLKISRVEAEDVGVYYCMQVLQIPYTFGQGTKLEIK | SARS-CoV2 |  | 
C120 (antibody, listed as Homo sapiens, V domains shown) VH: EVQLVESGGGLIQPGGSLRLSCAASGFTVSSNYMTWVRQAPGKGLEWVSLIYPGGSTYYADSVKGRFTISRDNSKNTLYLQMNSLRAEDTAVYYCAREGMGMAAAGTWGQGTLVTVSS VL: AIRMTQSPSSLSASVGDTVTITCQASQDISKYLNWYQQKPGKAPKLLIYDASNLETGVPSRFSGSGSGTDFTFTISSLQPEDIATYYCQQYDNLPQTFGGGTKVEIK | SARS-CoV2 |  | 
C017 (antibody, listed as Homo sapiens, V domains shown) VH: EVQLVESGGGLVQPGRSLRLSCAASGFTFDDYAMHWVRQAPGKGLEWVSGISWNSGTIGYADSVKGRFTISRDNAKNSLYLQMNSLRAEDTAFYYCAKAGVRGIAAAGPDLNFDHWGQGTLVTVSS VL: EIVLTQSPATLSLSPGERATLSCRASQSVSSYLAWYQQKPGQAPRLLIYDASNRATGIPARFSGSGSGTDFTLTISSLEPEDFAVYYCQQRITFGQGTRLEIK | SARS-CoV2 |  | 
C110 (antibody, listed as Homo sapiens, V domains shown) VH: QVQLQQSGAEVKKPGESLKISCKGSGYSFTSYWIGWVRQMPGKGLEWMGIIYPGDSDTRYSPSFQGQVTISADKSISTAYMQWSSLKASDTAMYYCARSFRDDPRIAVAGPADAFDIWGQGTMVTVSS VL: DIQMTQSPSTLSASVGDRVTITCRASQSISYWLAWYQQKPGKAPKLLIYQASSLESGVPSRFSGSESGTEFTLTISSLQPDDFATYYCQQYNSYPYTFGQGTKLEIK | SARS-CoV2 |  | 
C122 (antibody, listed as Homo sapiens, V domains shown) VH: EVQLVESGGGLIQPGGSLRLSCAASGLTVSSNYMSWVRQAPGKGLEWVSVLYSGGSSFYADSVKGRFTISRDNSKNTLYLQMNSLRAEDTAVYYCARESGDTTMAFDYWGQGTLVTVSS VL: DIQLTQSPSFLSASVGDRVTITCRASQGISSYLAWYQQKPGKAPKLLIYAASTLQSGVPSRFSGSGSGTEFTLTISSLQPEDFATYYCQQLNSDSYTFGQGTKLEIK | SARS-CoV2 |  | 
C123 (antibody, listed as Homo sapiens, V domains shown) VH: EVQLVESGGGLIQPGGSLRLSCAASGVTVSRNYMSWVRQAPGKGLEWVSVIYSGGSTYYADSVKGRFTISRDNSKNTLYLQMNSLRAEDTAVYYCARDLSAAFDIWGQGTMVTVSS VL: DIQLTQSPSFLSASVGDRVTITCRASQGISSYLAWYQQKPGKAPKLLIYAASTLQSGVPSRFSGSGSGTEFTLTISSLQPEDFATYYCQQLNSYPPAFGQGTRLEIK | SARS-CoV2 |  | 
C103 (antibody, listed as Homo sapiens, V domains shown) VH: QVQLQQWGAGLLKPSETLSLTCAVSGGSLSGFYWTWIRQPPGKGLEWIGETNHFGSTGYKPSLKSRVTISVDMSRNQFSLKVTSVTAADTAVYYCARKPLLYSDFSPGAFDIWGQGTMVTVSS VL: EIVLTQSPGTLSLSPGERATLSCRASQTVTANYLAWYQQKPGQAPRLLIYGASKRATGIPDRFSGSGSGTDFTLSISRLEPEDFAVYYCQQYTTTPRTFGGGTKVEIK | SARS-CoV2 |  | 
C117 (antibody, listed as Homo sapiens, V domains shown) VH: QVQLVESGGGVVQPGRSLRLSCAASGFTFSTYAMHWVRQAPGEGLEWVAVISYDGSNTYYADSVKGRFTISRDNSKNTLYLQMNSLRAEDTAVYYCARDPIWFGELLSPPFVHFDYWGQGTLVTVSS VL: QSVLTQPPSVSAAPGQKVTISCSGSSSNIGNNLVSWYQQLPGTAPKLLIYENNKRPSGIPDRFSGSKSGTSATLGITGLQTGDEADYYCGAWDSSLSAGGVYVFGTGTKVTVL | SARS-CoV2 |  | 
C108 (antibody, listed as Homo sapiens, V domains shown) VH: QVQLQESGPGLVKPSGTLSLTCAVSGGSISSTNWWSWVRQPPGKGLEWIGEIYHTGSTNYNPSLKSRVTISVDKSKNQFSLKLSSVTAADTAVYYCVRDGGRPGDAFDIWGQGTMVTVSS VL: QSALTQPASVSGSPGQSITISCTGTSSDVGGYNYVSWYQQHPGKAPKLMIYDVSNRPSGVSNRFSGSKSGNTASLTISGLQAEDEADYYCNSYTSSSTRVFGTGTKVTVL | SARS-CoV2 |  | 
2M-8H10 (antibody, listed as Homo sapiens, V domains shown) VH: QVQLVESGGGVVLPGRSLRLSCAASGFTFSTFAMHWVRQAPGKGLEWVAVISDEGSNKYYADSVKGRFTISRDNSRNTLYLQMNSLRAEDTAVYYCARAFYDSNWSVGSYFDSWGQGTPVTVSS VL: DIQMTQSPDSLAVSLGERATIKCKSSQSVLHSSNNKNYLAWYQQKAGQPPSLLLYWASTRESGVPDRFSGSGSGTDFTLTISSLQAEDVAVYYCQQYYNNQWTFGQGTKVDIK |  | SARS-CoV2 | 
C105 (antibody, listed as Homo sapiens, V domains shown) VH: QVQLVESGGGLIQPGGSLRLSCAASGFTVSSNYMSWVRQAPGKGLEWVSVIYSGGSTYYADSVKGRFTISRDNSKNTLYLQMNSLRAEDTAVYYCARGEGWELPYDYWGQGTLVTVSS VL: QSALTQPPSASGSPGQSVTISCTGTSSDVGGYKYVSWYQQHPGKAPKLMIYEVSKRPSGVPDRFSGSKSGNTASLTVSGLQAEDEADYYCSSYEGSNNFVVFGGGTKLTVL | SARS-CoV2 |  | 
